Data: patent US20210347865A1 (STATEN BIOTECHNOLOGY B V, published 2021)

Key:
[1] = molecular target: T1, native human ApoC3 (human, UniProt P02656 21-99, biotinylated in the captured-antigen assays (Tables 6 and 8); sites not stated); assay: SPR, IgG captured via anti-human Fc, ApoC3 analyte 50 nM
T1 construct: also called nhuApoC3; native huApoC3
Procedure: (§1) Immobilization was performed in accordance with the method provided by Biacore in the NHS/EDC kit (Biacore AB). Briefly, after activation of the chip, a solution of 30 μg/ml anti-human Fcγ antibody in 10 mM acetate buffer with pH 5.0 was injected until the surface density reached approximately 10,000 RU. […] Following antibody capture, 100 μl of HBS-EP buffer was injected and passed through the flow cells at 30 μl/min. To bind target, 60 μl of 400 nM, 200 nM, 100 nM, or 50 nM ApoC3 protein in HBS-EP buffer was injected. An off-rate wash was performed by injection of HBS-EP buffer at 30 μl/min for 5 min. After dissociation, the flow cell surfaces were regenerated by injecting 20 μl of 10 mM glycine at pH 1.5.
(§2) The resulting sensorgrams were analysed with BIAevaluation 4.1 software using the Langmuir 1:1 binding model to derive binding kinetics. Data was zero adjusted and the reference cell sensorgrams were subtracted. A no-analyte blank assay was used for double referencing the sensorgrams corresponding to nhuApoC3 and rcyApoC3 injections. The dissociation and association phase sensorgrams were fitted separately for the 4 different concentration curves. Sensorgrams were excluded from the fitting if maximum RU values were below the limit of detection (i.e., <5 RU). SPR signals were too low to calculate kinetic parameters for […].

[2] = molecular target: T1, native human ApoC3; assay: SPR, IgG captured via anti-human Fc, ApoC3 analyte 100 nM
Procedure: as §1, §2

[3] = molecular target: T1, native human ApoC3; assay: SPR, IgG captured via anti-human Fc, ApoC3 analyte 200 nM
Procedure: as §1, §2

[4] = molecular target: T1, native human ApoC3; assay: SPR, IgG captured via anti-human Fc, ApoC3 analyte 400 nM
Procedure: as §1, §2

[5] = molecular target: T1, native human ApoC3; assay: SPR, biotinylated antigen captured on streptavidin chip, IgG as analyte, pH 7.4
[6] = molecular target: T1, native human ApoC3; assay: SPR, antigen immobilized on CM5 chip, IgG as analyte, pH 7.4; footnote: n/a: not applicable; below the limits of detection kd: 1E-06 1/s
[7] = molecular target: T1, native human ApoC3; assay: SPR, Table 9 ('29A6-Nhance as the captured antigen'), analyte 0.78-25 nM, pH 7.4
Procedure: (§3) For the captured antigen approach, biotinylated native human ApoC3 was captured on a streptavidin coated chip (GE Healthcare #BR100032) at pH 7.4. In accordance with the methods provided by Biacore, 20 μl of 10 μg/ml biotinylated human ApoC3 was injected until the surface density reached approximately 500 RU. SPR methods and data analysis were followed as described in Example 2.1. SPR was also performed using these methods with the 29A06-Nhance antibody as the captured antigen. The 29A06-Nhance antibody comprises the heavy chain amino acid sequence set forth in SEQ ID NO: 38 and the light chain amino acid sequence set forth in SEQ ID NO: 50.
(§4) Similarly to the immobilized antigen approach, most of the clones had high affinity towards the human target and low off-rate values.

[8] = molecular target: T2, recombinant cynomolgus ApoC3 (cynomolgus monkey, UniProt P18659 21-99, biotinylated in the captured-antigen assays (Tables 6 and 8); sites not stated); assay: as above
T2 construct: No cleavage site is stated, so none is applied; also called rcyApoC3; bio-rcyApoC3
Procedure: as §3, §4

[9] = molecular target: T1, native human ApoC3; assay: SPR, antigen immobilized on CM5 chip, IgG as analyte, pH 7.4
[10] = molecular target: T2, recombinant cynomolgus ApoC3; assay: SPR, biotinylated antigen captured on streptavidin chip, IgG as analyte, pH 7.4
[11] = molecular target: T2, recombinant cynomolgus ApoC3; assay: SPR, antigen immobilized on CM5 chip, IgG as analyte, pH 7.4; antigen immobilized on chip, IgG as analyte (12.5-0.8 nM)
[12] = molecular target: T2, recombinant cynomolgus ApoC3; assay: SPR, biotinylated antigen captured on streptavidin chip, IgG as analyte, pH 7.4; biotinylated antigen captured on streptavidin chip, IgG as analyte
[13] = molecular target: T2, recombinant cynomolgus ApoC3; assay: SPR, IgG captured via anti-human Fc, ApoC3 analyte 50 nM
Procedure: as §1, §2

[14] = molecular target: T2, recombinant cynomolgus ApoC3; assay: SPR, IgG captured via anti-human Fc, ApoC3 analyte 100 nM
Procedure: as §1, §2

[15] = molecular target: T2, recombinant cynomolgus ApoC3; assay: SPR, IgG captured via anti-human Fc, ApoC3 analyte 200 nM
Procedure: as §1, §2

[16] = molecular target: T2, recombinant cynomolgus ApoC3; assay: SPR, IgG captured via anti-human Fc, ApoC3 analyte 400 nM
Procedure: as §1, §2

[17] = molecular target: T2, recombinant cynomolgus ApoC3; assay: SPR, antigen immobilized on CM5 chip, IgG as analyte, pH 7.4
[18] = molecular target: T1, native human ApoC3; assay: SPR, biotinylated antigen captured on streptavidin chip, IgG as analyte, pH 7.4; footnote: n/a: not applicable; below the limits of detection kd: 1E-06 1/s
[19] = molecular target: T2, recombinant cynomolgus ApoC3; assay: SPR, antigen immobilized on CM5 chip, IgG as analyte, pH 7.4; antigen immobilized on chip, IgG as analyte (50-0.8 nM)

T1 sequence (P02656 21-99): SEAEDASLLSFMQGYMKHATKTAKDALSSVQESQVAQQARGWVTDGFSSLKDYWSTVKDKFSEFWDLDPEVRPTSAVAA
T2 sequence (P18659 21-99 limits assumed): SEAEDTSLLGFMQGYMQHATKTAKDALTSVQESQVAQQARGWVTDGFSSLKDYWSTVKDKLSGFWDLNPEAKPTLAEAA

| Kd [1] | koff [1] | kon [1] | Kd [2] | koff [2] | kon [2] | Kd [3] | koff [3] | kon [3] | Kd [4] | koff [4] | kon [4] | Kd [5] | koff [5] | kon [5] | koff [6] | Kd [9] | koff [9] | kon [9] | Kd [10] | Binder | also measured |
| --- | --- | --- | --- | --- | --- | --- | --- | --- | --- | --- | --- | --- | --- | --- | --- | --- | --- | --- | --- | --- | --- |
| 4.79 nM | 0.00115 s⁻¹ | 240000 M⁻¹ s⁻¹ | 4.85 nM | 0.00117 s⁻¹ | 241000 M⁻¹ s⁻¹ | 5.21 nM | 0.00122 s⁻¹ | 234000 M⁻¹ s⁻¹ | 5.76 nM | 0.00119 s⁻¹ | 207000 M⁻¹ s⁻¹ | 0.05 nM | 7.3e-05 s⁻¹ | 1.38e+06 M⁻¹ s⁻¹ |  | 0.04 nM | 6.3e-05 s⁻¹ | 1.44e+06 M⁻¹ s⁻¹ | 0.25 nM | 29G11 IgG (antibody, V domains shown) VH: QLQLVESGGGLVQPGGSLRLSCAASGFTFGTYSMRWVRQVPRKALEWVSSISTDGGGTAYRDSVKGRFTISRDNAKNTLYLQMNNLKPEDTAIYYCVIAGYSDWGQGTQVTVSS VL: DVVLTQTPGSLSVVPGGSASISCKASQSLVYSDGKTYLYWLRQKPGQSPQRLIYQVSNRPSGVPDRFTGSGSGTDFTLKISGVKAEDAGVYYCAQDTYSTKTFGQGTKLEIK | Kd [11]: 0.38 nM; koff [11]: 0.000531 s⁻¹; kon [11]: 1.4e+06 M⁻¹ s⁻¹; koff [12]: 0.000228 s⁻¹; kon [12]: 920000 M⁻¹ s⁻¹ |
|  |  |  | 0.336 nM | 8e-05 s⁻¹ | 238000 M⁻¹ s⁻¹ | 0.35 nM | 8.44e-05 s⁻¹ | 241000 M⁻¹ s⁻¹ | 0.401 nM | 8.63e-05 s⁻¹ | 215000 M⁻¹ s⁻¹ |  |  |  | < 1e-06 s⁻¹ |  |  |  | 0.33 nM | 29B03 IgG (antibody, V domains shown) VH: QLQLVESGGGLVQPGGSLRLSCAASGFTFGTYSMRWVRQVPRKALEWVSSISTDGGGTAYRDSVKGRFTISRDNAKNTLYLQMNNLKPEDTAIYYCVIAGYSDWGQGTQVTVSS VL: DVVLTQTPGSLSVVPGESASISCKAGQNLVHPDGKTYLYWLLQKPGQSPQRLIYQVSNRDSGVPDRFTGSGSGTDFTLKISGVKVEDAGVYYCAQGTYWPKTFGQGTKLEIK | Kd [13]: 190 nM; koff [13]: 0.0127 s⁻¹; kon [13]: 66800 M⁻¹ s⁻¹; Kd [14]: 385 nM; koff [14]: 0.014 s⁻¹; kon [14]: 36300 M⁻¹ s⁻¹; Kd [15]: 297 nM; koff [15]: 0.0137 s⁻¹; kon [15]: 46100 M⁻¹ s⁻¹; Kd [16]: 367 nM; koff [16]: 0.0145 s⁻¹; kon [16]: 39600 M⁻¹ s⁻¹; Kd [17]: 0.18 nM; koff [17]: 6.7e-05 s⁻¹; kon [17]: 380000 M⁻¹ s⁻¹; koff [10]: 0.000104 s⁻¹; kon [10]: 320000 M⁻¹ s⁻¹; koff [18]: < 1e-06 s⁻¹ |
| 1.71 nM | 0.000246 s⁻¹ | 144000 M⁻¹ s⁻¹ | 1.63 nM | 0.000219 s⁻¹ | 134000 M⁻¹ s⁻¹ | 1.63 nM | 0.000217 s⁻¹ | 133000 M⁻¹ s⁻¹ | 1.8 nM | 0.000219 s⁻¹ | 122000 M⁻¹ s⁻¹ |  |  |  |  | 0.04 nM | 2.4e-05 s⁻¹ | 620000 M⁻¹ s⁻¹ | 1.75 nM | 29F10 IgG (antibody, V domains shown) VH: QLQLVESGGGLVQPGGSLRLSCAASGFTFGTYSMRWVRQVPRKALEWVSSISTDGGGTAYRDSVKGRFTISRDNAKNTLYLQMNNLKPEDTAIYYCVIAGYSDWGQGTQVTVSS VL: DVVLTQTPGSLSVVPGEPASVSCKASQSLVHPDGKTYLYWLLQKPGQSPQRLIYQVSNRGSGVPDRFTGSGSGTDFTLEISGVKAEDAGVYYCAQGTYWPKTFGQGTKLEIK | Kd [19]: 2.79 nM; koff [19]: 0.000774 s⁻¹; kon [19]: 280000 M⁻¹ s⁻¹; koff [12]: 0.000388 s⁻¹; kon [12]: 220000 M⁻¹ s⁻¹; koff [18]: < 1e-06 s⁻¹ |

More lines, now with the values behind:

| Binder | Kd [1] | koff [1] | kon [1] | Kd [2] | koff [2] | kon [2] | Kd [3] | koff [3] | kon [3] | Kd [4] | koff [4] | kon [4] | Kd [5] | koff [5] | kon [5] | koff [6] | Kd [9] | koff [9] | kon [9] | Kd [10] | also measured |
| --- | --- | --- | --- | --- | --- | --- | --- | --- | --- | --- | --- | --- | --- | --- | --- | --- | --- | --- | --- | --- | --- |
| 5E5 WT IgG (antibody, V domains shown, Full-length IgG captured by an anti-human Fc antibody) VH: QLQLVESGGGLVQPGGSLRLSCAASGFTFGTYSMRWVRQVPRKALEWVSSISTDGGGTAYRDSVKGRFTISRDNAKNTLYLQMNNLKPEDTAIYYCVIAGYSDWGQGTQVTVSS VL: ATMLTQSPGSLSVVPGESASISCKTSQGLVHSDGKTYFYWFLQKPGQSPQQLIYQVSNRASGVPDRFTGSGSGTDFTLKISGVKAEDAGVYYCAQGTYYPHTFGSGTRLEIK | 0.695 nM | 0.000114 s⁻¹ | 164000 M⁻¹ s⁻¹ | 0.734 nM | 0.000121 s⁻¹ | 165000 M⁻¹ s⁻¹ | 0.77 nM | 0.000128 s⁻¹ | 166000 M⁻¹ s⁻¹ | 0.741 nM | 0.000122 s⁻¹ | 165000 M⁻¹ s⁻¹ | 0.05 nM | 1.8e-05 s⁻¹ | 350000 M⁻¹ s⁻¹ | < 1e-06 s⁻¹ |  |  |  |  |  |
| 29A06-Nhance antibody (antibody, human IgG1, kappa, V domains shown, IgG1 heavy chain with the Nhance Fc variant, and a kappa light chain; This is probably a print error; also called mAb 29A6-Nhance; 29A6-Nhance) VH: QLQLVESGGGLVQPGGSLRLSCAASGFTFGTYSMRWVRQVPRKALEWVSSISTDGGGTAYRDSVKGRFTISRDNAKNTLYLQMNNLKPEDTAIYYCVIAGYSDWGQGTQVTVSS VL: DVVLTQTPGSLSVVPGESASISCKASQNLVHSNGKTYLYWLLQKPGQSPQRLIYQVSNRGSEVPDRFTGSGSGTDFTLKISGVKAEDAGVYYCAQGTYWPKTFGQGTKLEIKR |  |  |  |  |  |  |  |  |  |  |  |  |  |  |  |  |  |  |  |  | Kd [7]: 0.023 nM; kon [7]: 770000 M⁻¹ s⁻¹; Kd [8]: 0.675 nM |
